Test results published in patent US20220112288A1 (published 2022).
Positions count from the first letter of the chain named.

B1: 75110_08H11A (antibody, V domains shown)
VH: EVQLVESGGGLVQPGGSLRLSCAASGFTFSSYDMHWVRQATGKGLEWVSTIGTAGDTYYPGSVKGRFTISRENAKNSLYLQMNSLRAGDTAVYYCARGGYSYYGMDVWGQGTTVTVSS
VL: EIVLTQSPGTLSLSPGERATLSCGASQSVSSTYLAWYQQKPGQAPRLLIYGASSRATGIPDRFSGSGSGTDFTLTISRLEPEDFAVYYCQQFGSSPFTFGPGTKVDIK
notes: Tested as antibody purified from AlivaMab Mouse hybridoma supernatant (human variable domains, kappa; mouse Fc, captured on anti-mouse IgG Fc sensors); also called ADS75110 purified AMM Ab
B2: 75110_14H13A (antibody, V domains shown)
VH: B1 VH with S31N, E72K, N83I, Y100D, S101Y
VL: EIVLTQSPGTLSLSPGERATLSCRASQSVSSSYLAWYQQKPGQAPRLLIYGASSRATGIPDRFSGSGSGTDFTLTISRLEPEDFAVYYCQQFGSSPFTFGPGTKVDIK
notes: as for B1
B3: 75110_08H06A (antibody, V domains shown)
VH: B1 VH with S31N, S101D
VL: B1 VL with G24R, V29I, S30T, T32I, Q38R, F92Y
notes: as for B1
B4: 75110_14P08A (antibody, V domains shown)
VH: QVQLQESGPGLVKSSETLSLTCTDSGDSIRSYYWNWIRQPAGKGLEWIGRIYASGSTNYNPSLKSRVIMSADTSKNRFSLKLSSVTAADTAVYYCARDGGVGDSLDYWGQGTLVTVSS
VL: DIVMTQTPLSLPVTPGEPASISCRSSQSLLDSDDGNTYLDWYLQKPGQSPQLLIYTLSYRASGVPDRFSGSGSGTDFTLKISRVEAEDVGVYYCMQRIEFPFTFGPGTKVDIK
notes: Tested as antibody purified from the AlivaMab Mouse hybridoma supernatant (chimeric AlivaMab; captured by anti-mouse IgG Fc sensors, human kappa light chain); also called ADS75110 purified AMM Ab 75110_14P08A; Sib8.2
B5: 75110_07J24A (antibody, V domains shown)
VH: QAQLQESGPGLVKPSETLSLTCTVSGGSISSYYYNWIRQPAGKGLEWIGRIYTSGRTDYNPSLKSRVTMSADTSKNQFSLKLSSVTAADTAVYYCARDEGPTDAFDIWGQGTMVTVSS
VL: B4 VL with Q51H, T75S
notes: as for B1
B6: 75110_14G10A (antibody, V domains shown)
VH: EVQLVESGGGLVKPGGSLRLSCAASGFTFSSYSMNWVRQAPGKGLEWVSFISSSSSYIYYADSVKGRFTISRDNAKNSLYLQMNSLRAEDTAVYYCARERGDDYGDYEGAFDIWGQGTMVTVSS
VL: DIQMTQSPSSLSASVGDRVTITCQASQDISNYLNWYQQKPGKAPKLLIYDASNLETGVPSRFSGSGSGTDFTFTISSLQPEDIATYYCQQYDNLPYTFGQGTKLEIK
notes: as for B1

Key:
[1] = biological target: T1, Rhesus macaque CD4-HIS (Acro Biosystems, Cat. CD4-C52H7) (rhesus macaque, UniProt P16003 26-390); assay: BLI (Octet Red384); Ab on anti-mouse Fc (AMC) sensor; rhesus CD4-HIS as analyte
T1 construct: Bought reagent; also called Rhesus CD4; rhesus CD4-HIS; not shown: His tag

[2] = biological target: T2, Rhesus macaque CD4-HIS (Acro Biosystems, Cat. CD4-C52H7) (rhesus macaque, UniProt P16003 26-390); assay: BLI (Octet Red384); purified antibody captured on anti-mouse IgG Fc (AMC) sensors, rhesus CD4-HIS analyte at 100, 50, 25 nM; global 1:1 fit
T2 construct: Bought recombinant protein; also called Rhesus CD4; rhesus CD4-HIS; not shown: His tag

Binder	binding result [1]	further results
B1	no binding (tested: 100 nM (highest of 100, 50, 25 nM))	
B2	no binding (tested: 100 nM (highest of 100, 50, 25 nM))	
B3	no binding (tested: 100 nM (highest of 100, 50, 25 nM))	
B4		Kd [2]: 8.8 nM; koff [2]: 0.00066 s⁻¹; kon [2]: 75000 M⁻¹ s⁻¹
B5	no binding (tested: 100 nM (highest of 100, 50, 25 nM))	
B6	no binding (tested: 100 nM (highest of 100, 50, 25 nM))	
